Measurements reported in patent US20130109846A1 (published 2013).

Key:
human CD28 [1] = molecular target: T1, human CD28 (human, UniProt P10747 19-220); experiment: cell-based or functional assay
human CD28 [2] = molecular target: T1, human CD28; experiment: cell-based or functional assay; remark: listed apart in the source
human CD28 [3] = molecular target: T1, human CD28; experiment: cell-based or functional assay; remark: listed apart in the source
human CD28 [4] = molecular target: T1, human CD28; experiment: cell-based or functional assay; remark: listed apart in the source
[5] = molecular target: T2, recombinant human CD28/Fc Chimera (human, UniProt P10747 19-152); experiment: BIAcore, CM5 chip coated with 12500 RU of CD28-Fc
T2 construct: bought from R&D Systems; Fc part of the bought chimera not given

DC-MLR Assay (EC50 nM) (human CD28 [2]) [nM]	Luciferase assay (EC50 nM) (human CD28 [2]) [nM]	binding result [5]	also measured	Binder
13	10	–	Luciferase assay (EC50) (human CD28 [1]): 10 nM	1h-239-8 (other) VL: DIQMTQSPSSLSASVGDRVTITCRASQSIYPFLEWYQQKPGKAPKLLIYFTSRLQSGVPSRFSGSGSGTDFTLTISSLQPEDFATYYCLQNVTNPATFSQGTKVEIKR
2	9	–	Luciferase assay (EC50) (human CD28 [1]): 9 nM; MLR assay (EC50) (human CD28 [1]): 2 nM	1h-239-850 (other) VL: DIQMTQSPSSLSASVGDRVTITCRASRPIWPFLEWYQQKPGKAPKLLIYFTSRLQSGVPSRFSGSGSGTDFTLTISSLQPEDFATYYCLQNVSMPATFSQGTKVEIKR
3	3	–	Luciferase assay (EC50) (human CD28 [1]): 3 nM; MLR assay (EC50) (human CD28 [1]): 3 nM	1h-99-237 (other) VH: EVQLLESGGGLVQPGGSLRLSCAASGFTFDSANMSWARQAPGKGLEWVSWIEAPGVQTFYADSVRGRFTISRDNSKNTLYLQMNSLRAEDTAVYYCARSPFGPLYGFDYRGQGTLVTVSS
5	3	–	Luciferase assay (EC50) (human CD28 [1]): 3 nM; MLR assay (EC50) (human CD28 [1]): 5 nM	1h-99-238 (other) VH: EVQLLESGGGLVQPGGSLRLSCAASGFTFDSANMSWARQAPGKGLEWVSWIEASGVQTFYADSVKGRFTISRDNSKNTLYLQMNSLRAEDTAVYYCAKSPFGPLYGFDYRGQGTLVTVSS
13	17	–	Luciferase assay (EC50) (human CD28 [1]): 17 nM; MLR assay (EC50) (human CD28 [1]): 13 nM	1h-99-2 (other) VH: EVQLLESGGGLVQPGGSLRLSCAASGFTFDSANMSWVRQAPGKGLEWVSWIEDTGTQTFYADSVKGRFTISRDNSKNTLYLQMNSLRAEDTAVYYCAKSPFGPLYGFDYRGQGTLVTVSS
–	–	–	Luciferase assay (EC50) (human CD28 [1]): 4 nM; MLR assay (EC50) (human CD28 [1]): 3 nM; IFNγ (EC50 nM), DC-driven MLR (human CD28 [3]): 4.6 nM; IL-2 (EC50 nM), DC-driven MLR (human CD28 [3]): 2.4 nM; TNFα (EC50 nM), DC-driven MLR (human CD28 [3]): 3.6 nM	1h-99-265 (other) VH: EVQLLESGGGLVQPGGSLRLSCAASGFTFDKSNMSWARQAPGKGLEWVSWIEASGVQTFYADSVKGRFTISRDNSKNTLYLQMNSLRAEDTAVYYCAKSPFGPLYGFDYRGQGTLVTVSS
2	–	–	–	1h-99-237 40K linear PEG (other, 40K linear PEG; site of attachment not stated) VH: EVQLLESGGGLVQPGGSLRLSCAASGFTFDSANMSWARQAPGKGLEWVSWIEAPGVQTFYADSVRGRFTISRDNSKNTLYLQMNSLRAEDTAVYYCARSPFGPLYGFDYRGQGTLVTVSS
29	4.5	–	–	1h-99-238 40K linear PEG (other, 40K linear PEG; site of attachment not stated) VH: EVQLLESGGGLVQPGGSLRLSCAASGFTFDSANMSWARQAPGKGLEWVSWIEASGVQTFYADSVKGRFTISRDNSKNTLYLQMNSLRAEDTAVYYCAKSPFGPLYGFDYRGQGTLVTVSS
285	510	–	–	1h-239-8 40K linear PEG (other, 40K linear PEG; site of attachment not stated) VL: DIQMTQSPSSLSASVGDRVTITCRASQSIYPFLEWYQQKPGKAPKLLIYFTSRLQSGVPSRFSGSGSGTDFTLTISSLQPEDFATYYCLQNVTNPATFSQGTKVEIKR
4	2	–	–	1h-239-850 40K linear PEG (other, 40K linear PEG; site of attachment not stated) VL: DIQMTQSPSSLSASVGDRVTITCRASRPIWPFLEWYQQKPGKAPKLLIYFTSRLQSGVPSRFSGSGSGTDFTLTISSLQPEDFATYYCLQNVSMPATFSQGTKVEIKR
0.5	0.2	–	IFNγ (EC50 nM), DC-driven MLR (human CD28 [3]): 0.2 nM; IL-2 (EC50 nM), DC-driven MLR (human CD28 [3]): 0.1 nM; TNFα (EC50 nM), DC-driven MLR (human CD28 [3]): 0.2 nM; CD80 CHO (EC50 nM), T cell proliferation (human CD28 [4]): 0.3 nM; CD86 CHO (EC50 nM), T cell proliferation (human CD28 [4]): 0.4 nM	1h-239-891 (other) VL: DIQMTQSPSSLSASVGDRVTITCRASRPIWPFLEWYQQKPGKAPKLLIYFTSRLRHGVPSRFSGSGSGTDFTLTISSLQPEDFATYYCLQNVANPATFSQGTKVEIKR
1.5	–	–	–	1h-239-891(Q3C) 40K branched PEG (other, 40K branched PEG; engineered cysteine Q3C) VL: DICMTQSPSSLSASVGDRVTITCRASRPIWPFLEWYQQKPGKAPKLLIYFTSRLRHGVPSRFSGSGSGTDFTLTISSLQPEDFATYYCLQNVANPATFSQGTKVEIKR
1.3	–	–	–	1h-239-891(S9C) 40K branched PEG (other, 40K branched PEG; engineered cysteine S9C) VL: DIQMTQSPCSLSASVGDRVTITCRASRPIWPFLEWYQQKPGKAPKLLIYFTSRLRHGVPSRFSGSGSGTDFTLTISSLQPEDFATYYCLQNVANPATFSQGTKVEIKR
2	–	–	–	1h-239-891(G41C) 40K branched PEG (other, 40K branched PEG; engineered cysteine G41C) VL: DIQMTQSPSSLSASVGDRVTITCRASRPIWPFLEWYQQKPCKAPKLLIYFTSRLRHGVPSRFSGSGSGTDFTLTISSLQPEDFATYYCLQNVANPATFSQGTKVEIKR
13	–	–	–	1h-239-891(K42C) 40K branched PEG (other, 40K branched PEG; engineered cysteine K42C) VL: DIQMTQSPSSLSASVGDRVTITCRASRPIWPFLEWYQQKPGCAPKLLIYFTSRLRHGVPSRFSGSGSGTDFTLTISSLQPEDFATYYCLQNVANPATFSQGTKVEIKR
0.8	–	–	–	1h-239-891(S60C) 30K linear PEG (other, 30K linear PEG; engineered cysteine S60C) VL: DIQMTQSPSSLSASVGDRVTITCRASRPIWPFLEWYQQKPGKAPKLLIYFTSRLRHGVPCRFSGSGSGTDFTLTISSLQPEDFATYYCLQNVANPATFSQGTKVEIKR
1.2	–	–	–	1h-239-891(S60C) 40K branched PEG (other, 40K branched PEG; engineered cysteine S60C) VL: DIQMTQSPSSLSASVGDRVTITCRASRPIWPFLEWYQQKPGKAPKLLIYFTSRLRHGVPCRFSGSGSGTDFTLTISSLQPEDFATYYCLQNVANPATFSQGTKVEIKR
4.9	–	–	–	1h-239-891(Q79C) 40K branched PEG (other, 40K branched PEG; engineered cysteine Q79C) VL: DIQMTQSPSSLSASVGDRVTITCRASRPIWPFLEWYQQKPGKAPKLLIYFTSRLRHGVPSRFSGSGSGTDFTLTISSLCPEDFATYYCLQNVANPATFSQGTKVEIKR
–	–	–	IFNγ (EC50 nM), DC-driven MLR (human CD28 [3]): 0.3 nM; IL-2 (EC50 nM), DC-driven MLR (human CD28 [3]): 0.1 nM; TNFα (EC50 nM), DC-driven MLR (human CD28 [3]): 0.2 nM	1h-239-890 (other) VL: DIQMTQSPSSLSASVGDRVTITCRASRPIWPFLEWYQQKPGKAPKLLIYFTSRLARGVPSRFSGSGSGTDFTLTISSLQPEDFATYYCLQNVANPATFSQGTKVEIKR
–	–	–	IFNγ (EC50 nM), DC-driven MLR (human CD28 [3]): 0.3 nM; IL-2 (EC50 nM), DC-driven MLR (human CD28 [3]): 0.3 nM; TNFα (EC50 nM), DC-driven MLR (human CD28 [3]): 0.3 nM	1h-239-896 (other) VL: DIQMTQSPSSLSASVGDRVTITCRASRPIWPFLEWYQQKPGKAPKLLIYFTSRLARGVPSRFSGSGSGTDFTLTISSLQPEDFATYYCLQNVQMPATFSQGTKVEIKR
–	–	binds	–	DOM21-4 (other, VH dAb) VH: EVQLLESGGGLVQPGGSLRLSCAASGFTFSRYHMAWVRQAPGKGLEWVSVIDSLGLQTYYADSVKGRFTISRDNSKNTLYLQMNSLRAEDTAVYYCAEYGGAFDYWGQGTLVTVSS
–	–	binds	–	DOM21-6 (other, VH dAb) VH: EVQLLESGGGLVQPGGSLRLSCAASGFTFENYGMAWVRQAPGKGLEWVSNIGRAGSVTYYADSVKGRFTISRDNSKNTLYLQMNSLRAEDTAVYYCAKVQSWRTFDYWGQGTLVTVSS
–	–	binds	–	DOM21-18 (other, VK dAb) VL: DIQMTQSPSSLSASVGDRVTITCRASQYIGTSLNWYQQKPGKAPKLLTYQASLLQSGVPSRFSGSGSGTDFTLTISSLQPEDFATYYCQQLALRPMTFGQGTKVEIKR
–	–	binds	–	DOM21-20 (other, VH dAb) VH: EVQLLESGGGLVQPGGSLRLSCAASGFTFPAYSMIWVRQAPGKGLEWVSTISPLGYSTYYADSVKGRFTISRDNSKNTLYLQMNSLRAEDTAVYYCAEQTAYLNRATEHFDYWGQGTLVTVSS
–	–	binds	–	DOM21-22 (other, VH dAb) VH: EVQLLESGGGLVQPGGSLRLSCAASGFTFELYQMGWVRQAPGKGLEWVSTIMPSGNLTYYADSVKGRFTISRDNSKNTLYLQMNSLRAEDTAVYYCAKMWSLNLGFHAAFDYWGQGTLVTVSS
–	–	binds	–	DOM21-27 (other, VK dAb) VL: DIQMTQSPSSLSASVGDRVTITCRASQSIGTGLRWYQQKPGKAPMLLIYRASILQSGVPSRFSGSGSGTDFTLTISSLQPEDFATYYCQQTTLQPFTFSQGTKVEIKR
–	–	binds	–	DOM21-28 (other, VK dAb) VL: DIQMTQSPSSLSASVGDRVTITCRASQSISHSLVWYQQKPGKAPKLLIYWASLLQSGVPSRFSGSGSGTDFTLTISSLQPEDFATYYCQQGMTTPFTFGQGTKVEIKR
–	–	binds	–	DOM21-38 (other, VH dAb) VH: EVQLLESGGGLVQPGGSLRLSCAASGFTFILYDMQWVRQAPGKGLEWVSRISANGHDTYYADSVKGRFTISRDNSKNTLYLQMNSLRAEDTAVYYCAKGPHYLFDYWGQGTLVTVSS
–	–	binds	–	DOM21-44 (other, VH dAb) VH: EVQLLESGGGLVQPGGSLRLSCAASGFTFARYTMVWVRQAPGKGLEWVSAIHFDGRTTYYADSVKGRFTISRDNSKNTLYLQMNSLRAEDTAVYYCAKNEWASLKHFDYWGQGTLVTVSS
